# In the supplement of paper PMC9112550, “Optimization of the antimicrobial peptide Bac7 by deep mutational scanning” (BMC Biology, 2022):
# Tested on: Escherichia coli TOP10
# Assay: shrunken log2 fold change of peptide-encoding DNA abundance (4.5 h post-induction vs induction); higher = less antimicrobial activity (less host growth inhibition)
# Conditions: time post-induction: 4.5 h; library: site-saturation at positions 5, 18, 19, 20
# 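Note: peptides expressed intracellularly from a pBAD plasmid library in pooled LB shake-flask culture, induced with 0.3% L-arabinose, DNA abundance read by NGS, three biological replicates, DESeq2 with apeglm shrinkage.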
row,Sequence,shrunken log2 fold change
1,RRIRLRPPRLPRPRPRPEDPPRP,0.0223
2,RRIRVRPPRLPRPRPRPLSDPRP,0.0263
3,RRIRHRPPRLPRPRPRPFLQPRP,0.0325
4,RRIRERPPRLPRPRPRPKTMPRP,-0.293
5,RRIRMRPPRLPRPRPRPQHNPRP,-0.605
6,RRIRGRPPRLPRPRPRPHTLPRP,-0.22
7,RRIRCRPPRLPRPRPRPSDLPRP,-0.0943
8,RRIRSRPPRLPRPRPRPVYMPRP,-0.461
9,RRIRARPPRLPRPRPRPEPPPRP,1.27
10,RRIRCRPPRLPRPRPRPDYYPRP,-0.231
11,RRIRVRPPRLPRPRPRPIQIPRP,-1.33
12,RRIRERPPRLPRPRPRPQPTPRP,0.234
13,RRIRVRPPRLPRPRPRPHEAPRP,0.145
14,RRIRTRPPRLPRPRPRPVDNPRP,-0.0554
15,RRIRWRPPRLPRPRPRPWIWPRP,0.0705
16,RRIRERPPRLPRPRPRPETHPRP,0.178
17,RRIRMRPPRLPRPRPRPDVYPRP,-0.119
18,RRIRLRPPRLPRPRPRPHLMPRP,-0.218
19,RRIRNRPPRLPRPRPRPSLQPRP,-0.0436
20,RRIRCRPPRLPRPRPRPNTPPRP,-0.345
21,RRIRNRPPRLPRPRPRPDRDPRP,0.0416
22,RRIRMRPPRLPRPRPRPHALPRP,-0.541

row,Sequence,shrunken log2 fold change
1,RRIRARPPRLPRPRPRPADPPRP,0.611
2,RRIRIRPPRLPRPRPRPDWFPRP,0.0564
3,RRIRERPPRLPRPRPRPGYHPRP,-0.502
4,RRIRRRPPRLPRPRPRPAIAPRP,0.468
5,RRIRKRPPRLPRPRPRPPERPRP,2.02
6,RRIRTRPPRLPRPRPRPGKQPRP,-0.184
7,RRIRQRPPRLPRPRPRPHHHPRP,-0.403
8,RRIRHRPPRLPRPRPRPIVYPRP,-0.452
9,RRIRGRPPRLPRPRPRPVFAPRP,0.696
10,RRIRYRPPRLPRPRPRPEPYPRP,-0.288
11,RRIRRRPPRLPRPRPRPREHPRP,0.673
12,RRIRTRPPRLPRPRPRPSGGPRP,0.863
13,RRIRVRPPRLPRPRPRPAEQPRP,0.247
14,RRIRARPPRLPRPRPRPTHHPRP,0.468
15,RRIRMRPPRLPRPRPRPERPPRP,0.338
16,RRIRQRPPRLPRPRPRPDTLPRP,0.016
17,RRIRQRPPRLPRPRPRPHRFPRP,-0.275
18,RRIRWRPPRLPRPRPRPPCFPRP,0.108
19,RRIRQRPPRLPRPRPRPKVTPRP,0.0375
20,RRIRQRPPRLPRPRPRPTNRPRP,0.0327
21,RRIRPRPPRLPRPRPRPYFMPRP,-0.555
22,RRIRFRPPRLPRPRPRPRVIPRP,-0.0914
